Experimental data from patent US20230158141A1 (YAFEI SHANGHAI BIOLOG MEDICINE SCIENCE AND TECHNOLOGY, published 2023).
Changes are numbered by the printed parent chain.

T1: IL-10R1-Fc (UniProt Q13651 22-235, limits assumed)
T1 sequence (looked up): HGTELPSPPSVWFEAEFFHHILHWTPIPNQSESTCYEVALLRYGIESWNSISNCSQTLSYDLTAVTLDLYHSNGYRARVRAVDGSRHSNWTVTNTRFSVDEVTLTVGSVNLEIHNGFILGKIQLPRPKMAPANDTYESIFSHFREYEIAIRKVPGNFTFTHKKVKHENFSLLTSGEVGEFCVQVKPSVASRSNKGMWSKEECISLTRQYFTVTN

B1: IL-10 Leu48Cys-R4-7 (ligand, human, UniProt P22301 19-178, looked up)
chain: SPGQGTQSENSCTHFPGNLPNMLRDLRDAFSRVKTFFQMKDQLDNLLCKESLLEDFKGYLGCQALSEMIQFYLEEVMPQAENQDPDIKAHVNSLGENLKTLRLRLRRCHRFLPCENKSKAVEQVKNAFNKLQEKGIYKAMSEFDIFINYIEAYMTMKIRN
modifications: R4-7 on Cys 48
notes: mature
B2: IL-10 Ser11Cys-R4-7 (ligand, human, UniProt P22301 19-178, looked up)
chain: B1 chain with S11C, C48L
modifications: R4-7 on Cys 11
notes: mature
B3: IL-10 Lys134Cys-R4-7 (ligand, human, UniProt P22301 19-178, looked up)
chain: B1 chain with C48L, K134C
modifications: R4-7 on Cys 134
notes: mature
B4: IL-10 Leu105Cys-S48 (ligand, human, UniProt P22301 19-178, looked up)
chain: B1 chain with C48L, L105C
modifications: S48 on Cys 105
notes: mature
B5: IL-10 Met39Cys-R4-1 (ligand, human, UniProt P22301 19-178, looked up)
chain: B1 chain with M39C, C48L
modifications: R4-1 on Cys 39
notes: mature
B6: IL-10 Lys49Cys-R4-5 (ligand, human, UniProt P22301 19-178, looked up)
chain: B1 chain with C48L, K49C
modifications: R4-5 on Cys 49
notes: mature
B7: IL-10 Leu65Cys-R4-6 (ligand, human, UniProt P22301 19-178, looked up)
chain: B1 chain with C48L, L65C
modifications: R4-6 on Cys 65
notes: mature
B8: IL-10 Phe111Cys-S48 (ligand, human, UniProt P22301 19-178, looked up)
chain: B1 chain with C48L, F111C
modifications: S48 on Cys 111
notes: mature
B9: IL-10 Thr13Cys-R4-6 (ligand, human, UniProt P22301 19-178, looked up)
chain: B1 chain with T13C, C48L
modifications: R4-6 on Cys 13
notes: mature
B10: IL-10 Leu48Cys-S48 (ligand, human, UniProt P22301 19-178, looked up)
chain: B1 chain
modifications: S48 on Cys 48
notes: mature
B11: IL-10 Thr35Cys-R4-6 (ligand, human, UniProt P22301 19-178, looked up)
chain: B1 chain with T35C, C48L
modifications: R4-6 on Cys 35
notes: mature
B12: IL-10 Ser93Cys-S48 (ligand, human, UniProt P22301 19-178, looked up)
chain: B1 chain with C48L, S93C
modifications: S48 on Cys 93
notes: mature; the row prints S in one column and Asp in the next
B13: IL-10 Met140Cys-R4-1 (ligand, human, UniProt P22301 19-178, looked up)
chain: B1 chain with C48L, M140C
modifications: R4-1 on Cys 140
notes: mature
B14: IL-10 Lys49Cys-S48 (ligand, human, UniProt P22301 19-178, looked up)
chain: B1 chain with C48L, K49C
modifications: S48 on Cys 49
notes: mature
B15: IL-10 Lys117Cys-R4-7 (ligand, human, UniProt P22301 19-178, looked up)
chain: B1 chain with C48L, K117C
modifications: R4-7 on Cys 117
notes: mature
B16: IL-10 Ser51Cys-S48 (ligand, human, UniProt P22301 19-178, looked up)
chain: B1 chain with C48L, S51C
modifications: S48 on Cys 51
notes: mature
B17: IL-10 Leu65Cys-S48 (ligand, human, UniProt P22301 19-178, looked up)
chain: B1 chain with C48L, L65C
modifications: S48 on Cys 65
notes: mature
B18: IL-10 Leu94Cys-S48 (ligand, human, UniProt P22301 19-178, looked up)
chain: B1 chain with C48L, L94C
modifications: S48 on Cys 94
notes: mature
B19: IL-10 Ser141Cys-R4-7 (ligand, human, UniProt P22301 19-178, looked up)
chain: B1 chain with C48L, S141C
modifications: R4-7 on Cys 141
notes: mature
B20: IL-10 Thr13Cys-S48 (ligand, human, UniProt P22301 19-178, looked up)
chain: B1 chain with T13C, C48L
modifications: S48 on Cys 13
notes: mature
B21: IL-10 Ser93Cys-R4-2 (ligand, human, UniProt P22301 19-178, looked up)
chain: B1 chain with C48L, S93C
modifications: R4-2 on Cys 93
notes: as for B12
B22: IL-10 Ser11Cys-S48 (ligand, human, UniProt P22301 19-178, looked up)
chain: B1 chain with S11C, C48L
modifications: S48 on Cys 11
notes: mature
B23: IL-10 Phe30Cys-S48 (ligand, human, UniProt P22301 19-178, looked up)
chain: B1 chain with F30C, C48L
modifications: S48 on Cys 30
notes: mature
B24: IL-10 Ser118Cys-R4-5 (ligand, human, UniProt P22301 19-178, looked up)
chain: B1 chain with C48L, S118C
modifications: R4-5 on Cys 118
notes: mature
B25: IL-10 Ser8Cys-S48 (ligand, human, UniProt P22301 19-178, looked up)
chain: B1 chain with S8C, C48L
modifications: S48 on Cys 8
notes: mature
B26: IL-10 Phe143Cys-S48 (ligand, human, UniProt P22301 19-178, looked up)
chain: B1 chain with C48L, F143C
modifications: S48 on Cys 143
notes: mature
B27: IL-10 Thr155Cys-R4-7 (ligand, human, UniProt P22301 19-178, looked up)
chain: B1 chain with C48L, T155C
modifications: R4-7 on Cys 155
notes: mature
B28: IL-10 Lys138Cys-S48 (ligand, human, UniProt P22301 19-178, looked up)
chain: B1 chain with C48L, K138C
modifications: S48 on Cys 138
notes: mature
B29: IL-10 Tyr72Cys-R4-4 (ligand, human, UniProt P22301 19-178, looked up)
chain: B1 chain with C48L, Y72C
modifications: R4-4 on Cys 72
notes: mature
B30: IL-10 Leu53Cys-R4-6 (ligand, human, UniProt P22301 19-178, looked up)
chain: B1 chain with C48L, L53C
modifications: R4-6 on Cys 53
notes: mature
B31: IL-10 Lys157Cys-S48 (ligand, human, UniProt P22301 19-178, looked up)
chain: B1 chain with C48L, K157C
modifications: S48 on Cys 157
notes: mature
B32: IL-10 Ser8Cys-R4-5 (ligand, human, UniProt P22301 19-178, looked up)
chain: B1 chain with S8C, C48L
modifications: R4-5 on Cys 8
notes: mature
B33: IL-10 Leu131Cys-R4-6 (ligand, human, UniProt P22301 19-178, looked up)
chain: B1 chain with C48L, L131C
modifications: R4-6 on Cys 131
notes: mature
B34: IL-10 Leu94Cys-R4-6 (ligand, human, UniProt P22301 19-178, looked up)
chain: B1 chain with C48L, L94C
modifications: R4-6 on Cys 94
notes: mature
B35: IL-10 Met39Cys-S48 (ligand, human, UniProt P22301 19-178, looked up)
chain: B1 chain with M39C, C48L
modifications: S48 on Cys 39
notes: mature
B36: IL-10 Lys138Cys-R4-7 (ligand, human, UniProt P22301 19-178, looked up)
chain: B1 chain with C48L, K138C
modifications: R4-7 on Cys 138
notes: mature
B37: IL-10 Phe143Cys-R4-8 (ligand, human, UniProt P22301 19-178, looked up)
chain: B1 chain with C48L, F143C
modifications: R4-8 on Cys 143
notes: mature
B38: IL-10 Ser141Cys-S48 (ligand, human, UniProt P22301 19-178, looked up)
chain: B1 chain with C48L, S141C
modifications: S48 on Cys 141
notes: mature
B39: IL-10 Tyr72Cys-S48 (ligand, human, UniProt P22301 19-178, looked up)
chain: B1 chain with C48L, Y72C
modifications: S48 on Cys 72
notes: mature
B40: IL-10 Leu53Cys-S48 (ligand, human, UniProt P22301 19-178, looked up)
chain: B1 chain with C48L, L53C
modifications: S48 on Cys 53
notes: mature
B41: IL-10 Thr155Cys-S48 (ligand, human, UniProt P22301 19-178, looked up)
chain: B1 chain with C48L, T155C
modifications: S48 on Cys 155
notes: mature
B42: IL-10 Leu105Cys-R4-6 (ligand, human, UniProt P22301 19-178, looked up)
chain: B1 chain with C48L, L105C
modifications: R4-6 on Cys 105
notes: mature
B43: IL-10 Lys134Cys-S48 (ligand, human, UniProt P22301 19-178, looked up)
chain: B1 chain with C48L, K134C
modifications: S48 on Cys 134
notes: mature
B44: IL-10 Ser51Cys-R4-7 (ligand, human, UniProt P22301 19-178, looked up)
chain: B1 chain with C48L, S51C
modifications: R4-7 on Cys 51
notes: mature
B45: IL-10 Lys157Cys-R4-7 (ligand, human, UniProt P22301 19-178, looked up)
chain: B1 chain with C48L, K157C
modifications: R4-7 on Cys 157
notes: mature
B46: IL-10 Lys117Cys-S48 (ligand, human, UniProt P22301 19-178, looked up)
chain: B1 chain with C48L, K117C
modifications: S48 on Cys 117
notes: mature
B47: IL-10 Phe111Cys-R4-8 (ligand, human, UniProt P22301 19-178, looked up)
chain: B1 chain with C48L, F111C
modifications: R4-8 on Cys 111
notes: mature
B48: IL-10 Ser118Cys-S48 (ligand, human, UniProt P22301 19-178, looked up)
chain: B1 chain with C48L, S118C
modifications: S48 on Cys 118
notes: mature
B49: IL-10 Leu131Cys-S48 (ligand, human, UniProt P22301 19-178, looked up)
chain: B1 chain with C48L, L131C
modifications: S48 on Cys 131
notes: mature
B50: IL-10 Phe30Cys-R4-8 (ligand, human, UniProt P22301 19-178, looked up)
chain: B1 chain with F30C, C48L
modifications: R4-8 on Cys 30
notes: mature
B51: IL-10 Met140Cys-S48 (ligand, human, UniProt P22301 19-178, looked up)
chain: B1 chain with C48L, M140C
modifications: S48 on Cys 140
notes: mature

biological target: T1, IL-10R1-Fc; test: ELISA, IL-10R1-Fc coated

First: B1
Second: B2
The “Binding recovery (>60%)” value of the first is lower: 98.9% for the first, 133% for the second.

Compared with B3, B5 is lower in “Binding recovery (>60%)” value: 128% for the first, 88% for the second.

Going from B6 to B7, the “Binding recovery (>60%)” value falls from 114% to 92.3%.

Compared with B9, B11 is lower in “Binding recovery (>60%)” value: 99.1% for the first, 90.1% for the second.

Going from B13 to B15, the “Binding recovery (>60%)” value rises from 89% to 117%.

First: B19
Second: B21
The “Binding recovery (>60%)” value of the first is higher: 112% for the first, 100% for the second.

Compared with B24, B27 is lower in “Binding recovery (>60%)” value: 100% for the first, 98.1% for the second.

Going from B29 to B30, the “Binding recovery (>60%)” value falls from 109% to 99.4%.

Compared with B32, B33 is lower in “Binding recovery (>60%)” value: 100% for the first, 98.5% for the second.

Going from B34 to B36, the “Binding recovery (>60%)” value rises from 88.4% to 97.6%.

First: B37
Second: B42
The “Binding recovery (>60%)” value of the first is lower: 69% for the first, 92.3% for the second.

Going from B44 to B45, the “Binding recovery (>60%)” value rises from 96.7% to 98.6%.

Going from B47 to B50, the “Binding recovery (>60%)” value rises from 90.1% to 97.1%.

Going from B4 to B8, the “Decreased fold of binding to ligand after Conjugating with S48” value (shortened to “Decreased fold of binding to ligand”) rises from 5 fold to 12 fold.

B10 and B12 are the same in “Decreased fold of binding to ligand” value: 3 fold for the first, 3 fold for the second.

Compared with B14, B16 is lower in “Decreased fold of binding to ligand” value: 7 fold for the first, 3 fold for the second.

Compared with B17, B18 is higher in “Decreased fold of binding to ligand” value: 3 fold for the first, 5 fold for the second.

First: B20
Second: B22
The “Decreased fold of binding to ligand” value of the first is lower: 7 fold for the first, 9 fold for the second.

Going from B23 to B25, the “Decreased fold of binding to ligand” value falls from 6 fold to 3 fold.

Compared with B26, B28 is higher in “Decreased fold of binding to ligand” value: 7 fold for the first, 23 fold for the second.

Going from B31 to B35, the “Decreased fold of binding to ligand” value rises from 3 fold to 62 fold.

Compared with B38, B39 is lower in “Decreased fold of binding to ligand” value: 19 fold for the first, 3 fold for the second.

B40 and B41 are the same in “Decreased fold of binding to ligand” value: 3 fold for the first, 3 fold for the second.

First: B43
Second: B46
The “Decreased fold of binding to ligand” value of the first is higher: 5 fold for the first, 3 fold for the second.

Going from B48 to B49, the “Decreased fold of binding to ligand” value rises from 3 fold to 5 fold.

In the case of B51, the “Decreased fold of binding to ligand” value is reported as 3 fold.
